For the assay, the target named is T1, purified IKKγ (human, UniProt Q9Y6K9 1-419, limits assumed).
T1 construct: also called NEMO
The experiment in a line: GST pull-down of purified IKKγ with GST-MUC1-CD fragments on glutathione beads, anti-IKKγ immunoblot (FIG. 5C). An excerpt: FIG. 5C is a pair of photographs of immunoblots. […] The precipitates were immunoblotted (IB) with anti-IKKγ antibody. […] The molecular weights of proteins (as indicated on the left of the photographs) are expressed as kilodaltons (kDa).
Background: In western blotting, separated proteins are transferred to a membrane and probed.

No end group written: not given here.

T1 sequence (Q9Y6K9 whole entry): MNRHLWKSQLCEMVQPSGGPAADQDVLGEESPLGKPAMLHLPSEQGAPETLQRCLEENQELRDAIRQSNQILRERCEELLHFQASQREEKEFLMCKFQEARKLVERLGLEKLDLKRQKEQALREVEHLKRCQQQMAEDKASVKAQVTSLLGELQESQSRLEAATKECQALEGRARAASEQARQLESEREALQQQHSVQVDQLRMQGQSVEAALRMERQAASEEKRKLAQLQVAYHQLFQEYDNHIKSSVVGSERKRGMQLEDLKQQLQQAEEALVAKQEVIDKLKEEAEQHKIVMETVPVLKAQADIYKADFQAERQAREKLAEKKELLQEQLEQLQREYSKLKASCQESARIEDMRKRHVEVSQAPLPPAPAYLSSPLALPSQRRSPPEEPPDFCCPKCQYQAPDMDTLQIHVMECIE

B1: GST-MUC1-CD(1-45) (other)
chain: CQCRRKNYGQLDIFPARDTYHPMSEYPTYHTHGRYVPPSSTDRSP
modifications: cysteine pairing not given here; also: GST fusion, GST sequence and linker not given here
notes: not shown: glutathione S-transferase (GST) tag
In the case of B1, the binding result is given as “no binding”.

(Values after patent US20080241125A1 (Dana-Farber, published 2008).)
